From US20200408781A1 come the findings set out here.

For test [1], the target named is p217+ tau in pooled CSF from AD subjects (human tau protein or tau fragments phosphorylated at T217 and/or T212) (human) (UniProt P10636). Put plainly: Simoa sandwich ELISA, pT3 capture; pooled AD CSF at 1:2 dilution.
The target is the same in test [2]. Put plainly: Simoa sandwich ELISA, pT3 capture; pooled AD CSF at 1:4 dilution.
Test [3] shares this target. Put plainly: Simoa sandwich ELISA, pT3 capture; pooled AD CSF at 1:8 dilution. (An ELISA detects its analyte on a solid surface through an enzyme-linked reagent.)
Test [4] shares this target. Put plainly: Simoa sandwich ELISA, pT3 capture; pooled AD CSF at 1:16 dilution.
For test [5] the target is unchanged. Put plainly: Simoa sandwich ELISA, pT3 capture; pooled AD CSF at 1:32 dilution.
The target is the same in test [6]. The test can be described thus: Simoa sandwich ELISA, pT3 capture; pooled AD CSF at 1:64 dilution.

Chain of p217+ tau in pooled CSF from AD subjects (human tau protein or tau fragments phosphorylated at T217 and/or T212) (human) (P10636 other isoform, or with tags, fused parts or gaps limits assumed): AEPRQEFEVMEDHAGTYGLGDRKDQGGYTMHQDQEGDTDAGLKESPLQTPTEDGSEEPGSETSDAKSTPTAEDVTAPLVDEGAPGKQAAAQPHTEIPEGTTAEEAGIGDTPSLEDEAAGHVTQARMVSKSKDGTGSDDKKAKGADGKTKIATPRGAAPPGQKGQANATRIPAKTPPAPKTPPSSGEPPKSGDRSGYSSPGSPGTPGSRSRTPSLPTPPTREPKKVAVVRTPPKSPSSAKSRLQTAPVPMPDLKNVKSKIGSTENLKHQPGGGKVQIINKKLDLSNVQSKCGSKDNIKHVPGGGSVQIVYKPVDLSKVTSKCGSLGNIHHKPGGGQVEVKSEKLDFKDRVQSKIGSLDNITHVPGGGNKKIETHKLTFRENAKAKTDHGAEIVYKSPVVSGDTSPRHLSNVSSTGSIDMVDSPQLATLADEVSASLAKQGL

Consider “Quanterix tau 2.0 assay detector (antibody)”, for which the S/N (Signal/Noise) was 525 in test [1]; 262 in test [2]; 147 in test [3]; 75 in test [4]; 35 in test [5]; 19 in test [6].
